Test results: patent publication US20090214627

How the values were obtained:
[1] = tested on: insulin receptor substrate-1 (IRS-1) peptide Y^608
[2] = target: T1, Peptide 1: Lys-Lys-His-Ala-Asp-Asp-Gly-Ala-Met-Pro-Met-Ser-Pro-Gly-Val-Ala (mutant IRS-1 peptide)
T1 chain: KKHADDGAMPMSPGVA

[3] = target: T2, Peptide 2: Arg-Thr-Glu-Ser-Ile-Thr-Ala-Thr-Ser-Pro-Ala-Ser-Met-Val-Gly-Gly-Lys-Pro (second IRS-1 peptide)
T2 chain: RTESITATSPASMVGGKP

[4] = target: insulin receptor substrate-1 (IRS-1) peptide Y^608; remark: listed apart in the source

Molecule	IRS phosphorylation by BVR (32P kinase assay) [1]	peptide phosphorylation by BVR (32P retained on P81 filters) [2]	peptide phosphorylation by BVR (32P retained on P81 filters) [3]	IRS-1 phosphorylation by BVR (32P kinase assay) [4]	peptide phosphorylation by BVR (32P retained on P81 filters) [4]	phosphorylation of BVR by IRK in the presence of increasing molar ratio of IRS/BVR [4]
GST-hBVR G17 mutant (GVGRA to GVARA), ATP binding domain mutant	G^17 mutation, for the most part, prevented IRS phosphorylation by BVR	–	–	–	–	–
GST-hBVR fusion protein, wild type (human biliverdin reductase fused to glutathione-S-transferase) (protein) MNAEPERKFGVVVVGVGRAGSVRMRDLRNPHPSSAFLNLIGFVSRRELGSIDGVQQISLEDALSSQEVEVAYICSESSSHEDYIRQFLNAGKHVLVEYPMTLSLAAAQELWELAEQKGKVLHEEHVELLMEEFAFLKKEVVGKDLLKGSLLFTSDPLEEDRFGFPAFSGISRLTWLVSLFGELSLVSATLEERKEDQYMKMTVCLETEKKSPLSWIEEKGPGLKRNRYLSFHFKSGSLENVPNVGVNKNIFLKDQNIFVQKLLGQFSEKELAAEKKRILHCLGLAEEIQKYCCSRK	–	both the mutated and unmutated peptides were phosphorylated to about the same extent (1049±78 cpm and 1081±183 cpm respectively)	this peptide is also a suitable substrate for BVR (1198±230 cpm)	IRS-1 is a substrate for BVR	both the mutated and unmutated peptides were phosphorylated to about the same extent (1049±78 cpm and 1081±183 cpm respectively)	in the presence of increasing amounts of IRS, there was an increase in phosphorylation of BVR by IR up to equimolar ratio of IRS/BVR
